Experimental findings from US20130212721 are described below.

In data set [1] the test system is T1, human FEAT protein (faint expression in normal tissues, aberrant overexpression in tumors).
T1 sequence: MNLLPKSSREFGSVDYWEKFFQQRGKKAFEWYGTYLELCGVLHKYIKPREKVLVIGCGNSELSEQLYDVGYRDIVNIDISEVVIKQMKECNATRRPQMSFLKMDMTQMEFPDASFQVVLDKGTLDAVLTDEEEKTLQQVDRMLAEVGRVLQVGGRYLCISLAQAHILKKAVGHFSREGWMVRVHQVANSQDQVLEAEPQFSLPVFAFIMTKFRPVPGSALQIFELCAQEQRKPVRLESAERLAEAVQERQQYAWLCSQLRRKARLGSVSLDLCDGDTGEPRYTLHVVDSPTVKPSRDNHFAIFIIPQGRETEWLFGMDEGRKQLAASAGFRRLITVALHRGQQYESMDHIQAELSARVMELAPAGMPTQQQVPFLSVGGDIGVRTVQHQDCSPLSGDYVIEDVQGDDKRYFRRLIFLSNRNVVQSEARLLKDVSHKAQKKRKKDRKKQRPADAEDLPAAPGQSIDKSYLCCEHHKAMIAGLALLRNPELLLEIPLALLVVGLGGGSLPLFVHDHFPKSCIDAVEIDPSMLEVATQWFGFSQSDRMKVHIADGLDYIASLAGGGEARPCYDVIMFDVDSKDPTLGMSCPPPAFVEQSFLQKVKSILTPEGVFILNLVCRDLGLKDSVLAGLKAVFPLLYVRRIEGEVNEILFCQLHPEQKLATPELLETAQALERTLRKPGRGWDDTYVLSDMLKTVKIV

For data set [2], the system named is T2, human FEAT D274A/D288A mutant.
T2 sequence: T1 sequence with D274A, D288A

Substitutions are numbered along the chain they refer to.

As for His-tagged recombinant caspase-6, the “cleavage of in vitro transcribed/translated [35S]-FEAT (SDS-PAGE, autoradiography)” value in data set [1] was “FEAT transcribed/translated in vitro was cleaved by caspase-3, but not by caspase-6”.
For His-tagged recombinant caspase-3, in data set [2], the “caspase-3 cleavage of FEAT with Asp-to-Ala mutations in the cleavage sites” value is reported as “are resistant to caspase-3 cleavage”. The “cleavage of in vitro transcribed/translated [35S]-FEAT (SDS-PAGE, autoradiography)” value in data set [1] was “FEAT transcribed/translated in vitro was cleaved by caspase-3, but not by caspase-6”.
